Test results from US20130011406A1 (KOLLTAN PHARMACEUTICALS, published 2013).

Tests used:
[1] = target: T1, full-length, wild-type human KIT (human, UniProt P10721 26-976); assay: cell-based or functional assay
[2] = target: T2, recombinant KIT D4/D5 polypeptide (D4/D5 region of human KIT, V308 to H515, with 5xHis tag) (human, UniProt P10721 26-519); assay: binding assays on the D4/D5 region of human KIT (solid phase ELISA); IgG version of Fab Ab1 (Dyax reformatting), Example 2
T2 construct: also called recombinant antigen; recombinant IG domain four and five of the extracellular region of KIT
T2 sequence (P10721 other isoform, or with tags, fused parts or gaps limits assumed): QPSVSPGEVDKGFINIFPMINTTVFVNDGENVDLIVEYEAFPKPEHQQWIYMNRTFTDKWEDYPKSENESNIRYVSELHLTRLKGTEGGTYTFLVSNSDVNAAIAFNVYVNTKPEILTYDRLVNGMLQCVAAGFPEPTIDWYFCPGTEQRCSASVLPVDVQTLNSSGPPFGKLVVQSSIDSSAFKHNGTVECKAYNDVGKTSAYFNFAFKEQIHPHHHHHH

[3] = target: T1, full-length, wild-type human KIT; assay: immunofluorescence staining with Ab1-Alexa488 on CHO/KIT and NIH3T3/KIT cells, confocal microscopy
Description: Immunofluorescence staining assays were carried to determine if antibody Ab1 was internalized by cells. The immunofluorescence staining assays were carried out essentially as described below. Materials and reagents for the immunofluorescence assays include the following: [0745] Tissue culture slides: Poly-D-Lysine coated four or eight well chamber slide [0746] Antibody: Antibody Ab1 conjugated with the fluorescent dye Alexa-488 (Invitrogen) [0747] Fixative: 4% paraformaldehyde; store 40% PFA microscopy grade in fridge and dilute 1:10 with PBS just before use [0748] Mounting media: Prolong Gold antifade+DAPI [0749] CHO cells engineered to express exogenous human, wild-type KIT (full-length) (“CHO/KIT”) [0750] NIH3T3 cells engineered to express exogenous human, wild-type KIT (full-length) [0751] (“NIH3T3/KIT”)
15,000 to 30,000 CHO/KIT cells or NIH3T3/KIT cells were seeded into each well of the tissue culture slide. The cells were cultivated for at least 24 hrs before starvation in media containing no fetal bovin serum overnight. Ab1-Alexa488 was diluted in starvation media containing 1% bovine serum albumin and pipetted onto the cell layer. 5 to 60 min later, cell layers were washed once with PBS (room temperature). Cell layers were fixed for 18 min with fixative at room temperature, and were washed 3 times with PBS. […] Internalization of the antibody was analyzed by confocal microscopy.

T1 sequence (P10721 other isoform, or with tags, fused parts or gaps limits assumed): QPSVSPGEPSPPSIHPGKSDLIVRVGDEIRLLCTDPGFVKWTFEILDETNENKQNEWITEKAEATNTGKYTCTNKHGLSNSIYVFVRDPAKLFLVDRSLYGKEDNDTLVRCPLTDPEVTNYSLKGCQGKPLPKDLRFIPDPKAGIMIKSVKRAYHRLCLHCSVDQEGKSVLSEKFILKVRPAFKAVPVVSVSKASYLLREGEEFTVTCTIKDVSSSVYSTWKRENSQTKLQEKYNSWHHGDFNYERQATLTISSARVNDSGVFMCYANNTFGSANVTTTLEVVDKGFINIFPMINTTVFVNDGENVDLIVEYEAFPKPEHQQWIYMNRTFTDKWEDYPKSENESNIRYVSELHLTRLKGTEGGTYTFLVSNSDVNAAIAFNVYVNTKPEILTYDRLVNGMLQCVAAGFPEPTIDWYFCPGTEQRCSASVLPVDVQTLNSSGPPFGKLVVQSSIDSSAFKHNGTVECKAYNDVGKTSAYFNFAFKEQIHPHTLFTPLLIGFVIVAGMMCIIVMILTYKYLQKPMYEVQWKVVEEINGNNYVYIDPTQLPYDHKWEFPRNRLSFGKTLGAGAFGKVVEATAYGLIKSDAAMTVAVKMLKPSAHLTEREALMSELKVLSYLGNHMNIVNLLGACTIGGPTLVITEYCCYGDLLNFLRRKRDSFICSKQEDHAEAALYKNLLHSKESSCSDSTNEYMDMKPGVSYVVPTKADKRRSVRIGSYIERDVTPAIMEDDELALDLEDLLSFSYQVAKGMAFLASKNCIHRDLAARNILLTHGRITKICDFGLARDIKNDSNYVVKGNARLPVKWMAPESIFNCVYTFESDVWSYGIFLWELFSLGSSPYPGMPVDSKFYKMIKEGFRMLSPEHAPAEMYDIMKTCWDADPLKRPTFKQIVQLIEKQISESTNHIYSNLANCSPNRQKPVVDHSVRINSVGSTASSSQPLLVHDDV

IC50 of inhibition of KIT phosphorylation (phospho-KIT assay) [1]	EC50 [2]	binding result [3]	Binder
~2.5 nM	~0.007 nM	–	IgG version of Fab antibody Ab1 (antibody, V domains shown, Variable regions of Fab Ab1 cloned into the Dyax pR vector) VH: EVQLLESGGGLVQPGGSLRLSCAASGFTFSNYLMSWVRQAPGKGLEWVSSIVPSGGFTHYADSVKGRFTISRDNSKNTLYLQMNSLRAEDTAVYYCARLQTGSWRVHAFDIWGQGTMVTVSS VL: DIQMTQSPTSLSAFVGDRVTITCQASQDIGNYLNWYQQKSGEPPKLLVYDASFLKKGVPSRFSGSGSGTQYFLTIYSLQPEDFATYFCQHSDNLSVTFGGGTKVEVK
–	–	binds	Antibody Ab1 conjugated with the fluorescent dye Alexa-488 (antibody, V domains shown, conjugated with the fluorescent dye Alexa-488 (chain and site not stated), also called Ab1-Alexa488) VH: EVQLLESGGGLVQPGGSLRLSCAASGFTFSNYLMSWVRQAPGKGLEWVSSIVPSGGFTHYADSVKGRFTISRDNSKNTLYLQMNSLRAEDTAVYYCARLQTGSWRVHAFDIWGQGTMVTVSS VL: DIQMTQSPTSLSAFVGDRVTITCQASQDIGNYLNWYQQKSGEPPKLLVYDASFLKKGVPSRFSGSGSGTQYFLTIYSLQPEDFATYFCQHSDNLSVTFGGGTKVEVK
